Literature values as cited in article PMC5576036.

Assays:
[1] = target: CD25 (IL-2Rα) (Homo sapiens) (UniProt P01589)
[2] = target: CD122 (IL-2Rβ) (Homo sapiens) (UniProt P14784)
[3] = target: intermediate-affinity IL-2R (CD122/CD132) (Homo sapiens) (UniProt P14784)

Chain of UniProt P01589 (P01589 22-240): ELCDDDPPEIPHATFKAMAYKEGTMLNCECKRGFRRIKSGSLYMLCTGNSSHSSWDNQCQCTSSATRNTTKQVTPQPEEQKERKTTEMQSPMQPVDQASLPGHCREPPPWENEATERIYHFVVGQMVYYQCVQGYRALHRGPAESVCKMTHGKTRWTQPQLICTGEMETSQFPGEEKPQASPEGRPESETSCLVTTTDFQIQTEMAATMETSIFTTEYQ

Kd [1]: 10 nM
Kd [2]: 100 nM
Kd [3]: 1 nM
Substance: IL-2 (from UniProt P60568)
